Results on four molecules are retold here after paper PMC7367684, “Mechanical inhibition of isolated Vo from V/A-ATPase for proton conductance” (eLife, 2020).

First the molecules themselves.
B1: d subunit of the Thermus thermophilus V/A-ATPase (natural protein)
chain: MADDFAYLNARVRVRRGTLLKESFFQEALDLSFADFLRLLSETVYGGELAGQGLPDVDRAVLRTQAKLVGDLPRLVTGEAREAVRLLLLRNDLHNLQALLRAKATGRPFEEVLLLPGTLREEVWRQAYEAQDPAGMAQVLAVPGHPLARALRAVLRETQDLARVEALLAKRFFEDVAKAAKGLDQPALRDYLALEVDAENLRTAFKLQGSGLAPDAFFLKGGRFVDRVRFARLMEGDYAVLDELSGTPFSGLSGVRDLKALERGLRCVLLKEAKKGVQDPLGVGLVLAYVKEREWEAVRLRLLARRAYFGLPRAQVEEEVVCP
notes: d subunit (subunit C) of the V/A-ATPase of Thermus thermophilus, strain HB8
B2: D subunit of the Thermus thermophilus V/A-ATPase (natural protein)
chain: MSQVSPTRMNLLQRRGQLRLAQKGVDLLKKKRDALVAEFFGLVREAMEARKALDQAAKEAYAALLLAQAFDGPEVVAGAALGVPPLEGVEAEVENVWGSKVPRLKATFPDGALLSPVGTPAYTLEASRAFRRYAEALIRVANTETRLKKIGEEIKKTTRRVNALEQVVIPGIRAQIRFIQQVLEQREREDTFRLKRIKGKIEAREAEEEGGRPNPQVEIGAGL
notes: D subunit (central shaft) of the V/A-ATPase of Thermus thermophilus, strain HB8; holds the short helix called screw driver helix (SDH); also called subunit D; axis subunit of the V1 domain; source: T. thermophilus membranes, V/A-ATPase purified (Ni-NTA by the His3 tag on the c-subunit, Resource Q), in nanodiscs

Data set [1] concerns the target T1, a subunit of the Thermus thermophilus V/A-ATPase (Thermus thermophilus, UniProt Q5SIT6 1-652).
T1 construct: a subunit (subunit I) of the V/A-ATPase of Thermus thermophilus, strain HB8; soluble arm domain asol and C-terminal hydrophobic domain aCT (membrane domain printed as A327-E637); also called asol (soluble arm domain); aCT (membrane-embedded C-terminal region)
T1 sequence: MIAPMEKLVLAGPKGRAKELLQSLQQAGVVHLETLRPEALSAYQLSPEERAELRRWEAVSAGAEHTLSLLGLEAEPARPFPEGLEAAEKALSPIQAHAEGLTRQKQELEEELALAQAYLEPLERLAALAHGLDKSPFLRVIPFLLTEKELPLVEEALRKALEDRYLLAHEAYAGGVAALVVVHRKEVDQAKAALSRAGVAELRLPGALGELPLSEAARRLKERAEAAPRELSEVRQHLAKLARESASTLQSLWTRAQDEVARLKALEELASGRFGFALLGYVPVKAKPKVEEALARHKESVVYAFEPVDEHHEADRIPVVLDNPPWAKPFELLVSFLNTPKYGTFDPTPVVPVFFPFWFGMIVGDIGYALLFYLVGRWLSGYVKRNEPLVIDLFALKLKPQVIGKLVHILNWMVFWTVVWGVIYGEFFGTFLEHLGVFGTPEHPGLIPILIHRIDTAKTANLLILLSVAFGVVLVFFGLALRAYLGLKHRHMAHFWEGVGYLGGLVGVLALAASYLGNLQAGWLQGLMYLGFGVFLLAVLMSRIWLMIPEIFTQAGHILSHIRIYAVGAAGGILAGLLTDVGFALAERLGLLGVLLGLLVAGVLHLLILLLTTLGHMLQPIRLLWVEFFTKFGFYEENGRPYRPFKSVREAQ
The experiment in a line: cryo-EM structure; isolated Vo (His3 tag on the c subunit) in nanodiscs (MSP1E3D1, DMPC by the methods), 20 mM Tris-HCl pH 8.0, 150 mM NaCl; CRYOARM200, K2 Summit; 3.9 Å. As to conditions: both partners purified.

Data set [2] concerns the target B1. The experiment in a line: cryo-EM structure; holo V/A-ATPase (His3 tag on the c subunit) in nanodiscs (MSP1E3D1, POPC), 20 mM Tris-HCl pH 8.0, 150 mM NaCl, 2 mM MgCl2; Titan Krios, Falcon II; rotational state 1, 3.6 Å overall, 3.5 Å focused map of A3B3DFE2G2dasol. As to conditions: both partners purified.
Data set [3] deals with the molecule itself. The experiment in a line: cryo-EM structure; isolated Vo (His3 tag on the c subunit) in nanodiscs (MSP1E3D1, DMPC by the methods), 20 mM Tris-HCl pH 8.0, 150 mM NaCl; CRYOARM200, K2 Summit; 3.9 Å.
Data set [4] addresses B2. Kind of data set: cryo-EM structure; holo V/A-ATPase (His3 tag on the c subunit) in nanodiscs (MSP1E3D1, POPC), 20 mM Tris-HCl pH 8.0, 150 mM NaCl, 2 mM MgCl2; Titan Krios, Falcon II; rotational state 1, 3.6 Å overall, 3.5 Å focused map of A3B3DFE2G2dasol. As to conditions: both partners purified.

For the molecule B1, the binding result in data set [1] was “binds”.
As for B2, the binding result in data set [2] is “binds”.

B3: c subunit of the Thermus thermophilus V/A-ATPase (c12 rotor ring) (natural protein)
chain: AEEAAASGGLDRGLIAVGMGLAVGLAALGTGVAQARIGAAGVGAIAEDRSNFGTALIFLLLPETLVIFGLLIAFILNGRL
notes: c subunit (subunit K/L, proteolipid) of the V/A-ATPase of Thermus thermophilus, strain HB8; chains Y and Z of the model are named in the text; Stands as a ring of twelve copies in Vo; also called c12 ring; c-ring; not shown: His3, C-terminal, kept; copies: 12
What is called stoichiometry N is a count of units in the complex or per binding partner. With B3, the “stoichiometry N” value in data set [3] was 12.

B4: F subunit of the Thermus thermophilus V/A-ATPase (natural protein)
chain: MAVIADPETAQGFRLAGLEGYGASSAEEAQSLLETLVERGGYALVAVDEALLPDPERAVERLMRGRDLPVLLPIAGLKEAFQGHDVEGYMRELVRKTIGFDIKL
notes: F subunit (central shaft) of the V/A-ATPase of Thermus thermophilus, strain HB8; also called subunit F; source: T. thermophilus membranes, V/A-ATPase purified (Ni-NTA by the His3 tag on the c-subunit, Resource Q), in nanodiscs
Consider B4, for which the binding result in data set [4] is given as “binds”.
